Assay results taken from patent US20240092876A1 (priority 2020, published 2024).
Several values for one entry are separate records, joined by “and”; a condition that tells them apart may be missing. Identical values can stand only once. Like-named read-outs stand apart in the source and are kept apart here.

How the values were obtained:
H1N1 A/Puerto Rico/8/34 = system: H1N1 A/Puerto Rico/8/34; parameters: species or system influenza A virus; settings: in vivo, po, 10 mg/kg
H3N2 A/Hong Kong/8/68 = system: H3N2 A/Hong Kong/8/68; parameters: species or system influenza A virus; settings: in vivo, po, 10 mg/kg
[1] = system: B/Victoria/504/2000 (Yamagata); parameters: species or system influenza B virus; settings: in vivo, po, 10 mg/kg
[2] = system: B/Brisbane/60/2008 (Victoria); parameters: species or system influenza B virus; settings: in vivo, po, 10 mg/kg
[3] = molecular target: N1 neuraminidase from A/Swine/Jiangsu/J004/2018 (Influenza A virus A/Swine/Jiangsu/J004/2018 (H1N1))
[4] = molecular target: N1 neuraminidase from A/Swine/Jiangsu/J004/2018 (Influenza A virus A/Swine/Jiangsu/J004/2018 (H1N1)); remark: listed apart in the source
[5] = molecular target: N2 A/South Australia/34/2019 (245Gly+) (Influenza A virus A/South Australia/34/2019)
[6] = molecular target: N2 A/South Australia/34/2019 (245Gly+) (Influenza A virus A/South Australia/34/2019); remark: listed apart in the source
[7] = molecular target: B/Lee/10/1940(Ancestral) (influenza B virus); assay: flow cytometry on NA-expressing cells
[8] = molecular target: B/Malaysia/2506/2004(Victoria) (influenza B virus); assay: flow cytometry on NA-expressing cells
[9] = molecular target: B/Yamanashi/166/1998(Yamagata) (influenza B virus); assay: flow cytometry on NA-expressing cells
[10] = molecular target: N1 neuraminidase from A/California/07/2009 (Influenza A virus A/California/07/2009 (H1N1)); assay: flow cytometry on NA-expressing cells
[11] = molecular target: N1 neuraminidase from A/Swine/Jiangsu/J004/2018 (Influenza A virus A/Swine/Jiangsu/J004/2018 (H1N1)); assay: flow cytometry on NA-expressing cells
[12] = molecular target: N1_A_Stockholm_18_2007 (influenza A virus); assay: flow cytometry on NA-expressing cells
[13] = molecular target: N1_NA_A_swine_Hebei_0116_2017 (influenza A virus); assay: flow cytometry on NA-expressing cells
[14] = molecular target: N2 neuraminidase from A/Washington/01/2007 (Influenza A virus A/Washington/01/2007); assay: flow cytometry on NA-expressing cells
[15] = molecular target: N2_A_Leningrad_134_17_57 (influenza A virus); assay: flow cytometry on NA-expressing cells
[16] = molecular target: N2_NA_A_South_Australia_34_2019 (influenza A virus); assay: flow cytometry on NA-expressing cells
[17] = molecular target: N3_A_Canada_rv504_2004 (influenza A virus); assay: flow cytometry on NA-expressing cells
[18] = molecular target: N6_A_Swine_Ontario_01911_1_99 (influenza A virus); assay: flow cytometry on NA-expressing cells
[19] = molecular target: N7_A_Netherlands_078_03 (influenza A virus); assay: flow cytometry on NA-expressing cells
[20] = molecular target: N8_A_harbor_seal_New_hampshire_179629_2011 (influenza A virus); assay: flow cytometry on NA-expressing cells
[21] = molecular target: N9 neuraminidase from A/Anhui/1/2013 (Influenza A virus A/Anhui/1/2013 (H7N9)); assay: flow cytometry on NA-expressing cells

1G01 (antibody)
Kd (N2): < 1 pM | koff (N2): < 1e-07 s⁻¹ | kon (N2): 40200 M⁻¹ s⁻¹

CCOC(=O)C1=C[C@@H](OC(CC)CC)[C@H](NC(C)=O)[C@@H](N)C1 [OSE, oseltamivir]
reduction in viral titres in comparison to the vehicle (H1N1 A/Puerto Rico/8/34): 1 log | reduction in viral titres in comparison to the vehicle (H3N2 A/Hong Kong/8/68): 1 log | reduction in viral titres in comparison to the vehicle [1]: 1 log | reduction in viral titres in comparison to the vehicle [2]: exception

FNI3 (antibody)
Alexa 647-A+ (percent of cells in the positive gate) [3]: 83.9% and 85.2% | Alexa 647-A+ (percent of cells in the positive gate) [4]: 83.7% and 79.6% | Kd (N2): < 1 pM | koff (N2): < 1e-07 s⁻¹ | kon (N2): 11500 M⁻¹ s⁻¹ | Alexa 647-A+ (percent of cells in the positive gate) [5]: 59.2% and 54% | Alexa 647-A+ (percent of cells in the positive gate) [6]: 49.1% and 48.4% | MFI normalized vs wt [7]: 1 | MFI normalized vs wt [8]: 1 | MFI normalized vs wt [9]: 1 | MFI normalized vs wt [10]: 1 | MFI normalized vs wt [11]: 1 | MFI normalized vs wt [12]: 1 | MFI normalized vs wt [13]: 1 | MFI normalized vs wt [14]: 1 | MFI normalized vs wt [15]: 1 | MFI normalized vs wt [16]: 1 | MFI normalized vs wt [17]: 1 | MFI normalized vs wt [18]: 1 | MFI normalized vs wt [19]: 1 | MFI normalized vs wt [20]: 1 | MFI normalized vs wt [21]: 1

FNI9 (antibody)
Alexa 647-A+ (percent of cells in the positive gate) [3]: 84% and 83.5% | Alexa 647-A+ (percent of cells in the positive gate) [4]: 82.1% and 78% | Kd (N2): < 1 pM | Alexa 647-A+ (percent of cells in the positive gate) [5]: 66.1% and 71.3% | Alexa 647-A+ (percent of cells in the positive gate) [6]: 68.8% and 57%
